Source: US20220259283A1 (AARHUS UNIVERSITET, published 2022)

T1: sortilin (human, UniProt Q99523)
T1 construct: soluble, 6his-tagged; Injected at 25-250 nM over immobilized progranulin-6his as a comparison with SorCS2; also called hSortilin-6his; soluble human sortilin
T1 sequence (receptor, soluble form, looked up): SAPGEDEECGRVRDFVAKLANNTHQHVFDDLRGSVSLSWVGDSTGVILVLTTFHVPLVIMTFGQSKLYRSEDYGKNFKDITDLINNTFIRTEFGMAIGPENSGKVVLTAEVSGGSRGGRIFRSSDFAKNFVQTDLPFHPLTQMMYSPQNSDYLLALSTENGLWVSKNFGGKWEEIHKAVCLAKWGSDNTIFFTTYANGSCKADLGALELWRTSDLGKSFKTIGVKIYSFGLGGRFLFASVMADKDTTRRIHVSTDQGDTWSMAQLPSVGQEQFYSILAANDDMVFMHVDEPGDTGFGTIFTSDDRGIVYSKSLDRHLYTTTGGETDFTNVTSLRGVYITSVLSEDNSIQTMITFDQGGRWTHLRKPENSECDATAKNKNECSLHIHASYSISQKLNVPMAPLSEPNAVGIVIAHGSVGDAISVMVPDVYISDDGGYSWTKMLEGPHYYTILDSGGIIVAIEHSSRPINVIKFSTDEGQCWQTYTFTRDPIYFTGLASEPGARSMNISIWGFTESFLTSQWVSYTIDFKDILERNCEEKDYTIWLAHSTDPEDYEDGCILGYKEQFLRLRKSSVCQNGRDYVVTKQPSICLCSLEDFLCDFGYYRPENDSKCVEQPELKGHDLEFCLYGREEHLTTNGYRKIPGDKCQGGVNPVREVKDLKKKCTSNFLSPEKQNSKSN

B1: tetrapeptide RQLL (peptide)
peptide: RQLL
notes: also called RQLL peptide; PGRN-derived tetra peptide
B2: Granulin E (ligand, UniProt P28799 518-593, looked up)
chain: DVECGEGHFCHDNQTCCRDNRQGWACCPYRQGVCCADRRHCCPAGFRCAARGTKCLRREAPRWDAPLRDPALRQLL
notes: domain: Granulin E; also called GrnE
B3: hPGRN-6his (human progranulin with a C-terminal 6his-tag) (ligand)
chain: TRCPDGQFCPVACCLDPGGASYSCCRPLLDKWPTTLSRHLGGPCQVDAHCSAGHSCIFTVSGTSSCCPFPEAVACGDGHHCCPRGFHCSADGRSCFQRSGNNSVGAIQCPDSQFECPDFSTCCVMVDGSWGCCPMPQASCCEDRVHCCPHGAFCDLVHTRCITPTGTHPLAKKLPAQRTNRAVALSSSVMCPDARSRCPDGSTCCELPSGKYGCCPMPNATCCSDHLHCCPQDTVCDLIQSKCLSKENATTDLLTKLPAHTVGDVKCDMEVSCPDGYTCCRLQSGAWGCCPFTQAVCCEDHIHCCPAGFTCDTQKGTCEQGPHQVPWMEKAPAHLSLPDPQALKRDVPCDNVSSCPSSDTCCQLTSGEWGCCPIPEAVCCSDHQHCCPQGYTCVAEGQCQRGSEIVAGLEKMPARRASLSHPRDIGCDQHTSCPVGQTCCPSLGGSWACCQLPHAVCCEDRQHCCPAGYTCNVKARSCEKEVVSAQPATFLARSPHVGVKDVECGEGHFCHDNQTCCRDNRQGWACCPYRQGVCCADRRHCCPAGFRCAARGTKCLRREAPRWDAPLRDPALRQLLHHHHHH
notes: Purified protein; also called progranulin-6his; human progranulin-6his

Experiments:
[1] = target: T2, hSorCS2-6his (extracellular domain of human SorCS2 with a C-terminal 6His-tag) (human, UniProt Q96PQ0 51-1076); experiment: microscale thermophoresis, 25 nM labelled hSorCS2-6his, partner titrated, triplicates
T2 construct: Made in CHO-K1 cells and purified from the medium; For crystallisation the protein was deglycosylated with PNGaseF; also called soluble human SorCS2; hSorCS2 extracellular domain
Experimental: Equilibrium-binding affinities between hSorCS2 and hPGRN-6his, GrnE and RQLL peptide were assessed by MST. Purified hSorCS2-6his was labelled using the MO-003 monolith blue-NHS labelling kit according to manufactures recommendation. hSorCS2 was applied at a final concentration of 25 nM while the unlabelled binding partner was titrated in 1:1 dilutions (PBS+0.05% Tween20). MST measurements were performed in standard treated capilaiers on a monolith NT.115 instrument. For each binding partner the sigmoid-dose response curve was fitted with GraphPad prism 6 to yield an average dissociation constant.

[2] = target: B3; experiment: SPR, RQLL peptide alone injected over immobilized C-terminal his-tagged progranulin on a CM5 chip (control trace of the competition experiment)
Experimental: (§1) Purified hPGRN-6his or hSorCS2-6his was immobilized on a CM5 sensor chip using standard amine-coupling. All sensograms were collected in PBS+0.05% Tween20 following injection of purified hPGRN-6his over immobilized hSorCS2-6his or hSortilin-6his and hSorCS2-6his with/without PGRN derived peptide over immobilized hPGRN-6his. Following this experimental setup we estimated the dissociation constant of the hSorCS2:hPGRN interaction to be 15 nM (FIG. 4). […] Inhibition experiments was performed using 100 nM hSorCS2 preincubated with 100 uM PGRN-derived tetra peptide and injected over immobilized hPGRN-6his (FIG. 7).

[3] = target: T2, hSorCS2-6his (extracellular domain of …); experiment: SPR, hPGRN-6his injected over hSorCS2-6his immobilized on a CM5 chip
Experimental: as §1

[4] = target: T2, hSorCS2-6his (extracellular domain of …); experiment: SPR, hSorCS2-6his injected over hPGRN-6his immobilized on a CM5 chip
Experimental: as §1

sortilin = target: T1, sortilin; experiment: SPR, soluble human sortilin injected over immobilized C-terminal his-tagged progranulin on a CM5 chip
Experimental: as §1

T2 sequence (Q96PQ0 other isoform, or with tags, fused parts or gaps): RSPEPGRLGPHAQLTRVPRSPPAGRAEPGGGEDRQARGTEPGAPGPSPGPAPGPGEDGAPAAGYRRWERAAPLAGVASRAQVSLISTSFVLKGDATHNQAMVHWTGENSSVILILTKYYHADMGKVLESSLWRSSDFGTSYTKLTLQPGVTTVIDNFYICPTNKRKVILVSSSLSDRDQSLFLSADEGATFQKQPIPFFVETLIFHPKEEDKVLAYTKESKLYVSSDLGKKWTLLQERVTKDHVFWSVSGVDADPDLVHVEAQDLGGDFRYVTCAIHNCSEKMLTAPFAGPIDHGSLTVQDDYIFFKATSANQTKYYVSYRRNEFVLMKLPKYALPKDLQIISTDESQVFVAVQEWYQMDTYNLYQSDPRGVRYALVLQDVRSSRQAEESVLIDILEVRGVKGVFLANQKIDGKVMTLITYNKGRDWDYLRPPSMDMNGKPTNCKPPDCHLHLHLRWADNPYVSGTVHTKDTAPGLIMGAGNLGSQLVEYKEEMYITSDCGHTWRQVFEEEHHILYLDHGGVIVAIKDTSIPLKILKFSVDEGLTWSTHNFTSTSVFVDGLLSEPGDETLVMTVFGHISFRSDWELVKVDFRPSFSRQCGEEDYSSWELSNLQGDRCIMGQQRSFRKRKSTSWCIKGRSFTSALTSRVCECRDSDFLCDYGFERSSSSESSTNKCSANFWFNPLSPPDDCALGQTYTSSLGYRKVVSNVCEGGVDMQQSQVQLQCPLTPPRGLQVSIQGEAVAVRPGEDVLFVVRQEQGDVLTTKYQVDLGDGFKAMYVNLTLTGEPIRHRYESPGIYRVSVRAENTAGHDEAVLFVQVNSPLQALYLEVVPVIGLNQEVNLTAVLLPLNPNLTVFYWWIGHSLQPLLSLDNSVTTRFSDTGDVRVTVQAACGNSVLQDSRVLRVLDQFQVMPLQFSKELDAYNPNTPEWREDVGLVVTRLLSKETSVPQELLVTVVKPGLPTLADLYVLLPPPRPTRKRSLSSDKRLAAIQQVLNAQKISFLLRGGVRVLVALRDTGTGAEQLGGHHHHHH

Kd [1] [nM]	binding result [2]	Kd [3] [nM]	Kd [4] [nM]	binding result (sortilin)	Binder
1000	no binding (tested: 100 uM)	–	–	–	B1
2000	–	–	–	–	B2
47.8	–	15	7.4	no binding (tested: 250 nM)	B3
